These results are taken from patent US20240318160A1.

What all share (test): TAL and PAL enzyme kinetics
Data set [1] has as its system N[C@@H](Cc1ccccc1)C(=O)O. It is filed as biochemical, Sorghum bicolor. The following applies: other: PAL assay (L-Phe), pH 8.5, 30° C.
Data set [2] relates to N[C@@H](Cc1ccc(O)cc1)C(=O)O. It is filed as biochemical, Arabidopsis thaliana. The settings on record: other: TAL assay (L-Tyr), pH 8.5, 30° C.
In data set [3] the test system is N[C@@H](Cc1ccccc1)C(=O)O. It is filed as biochemical, Arabidopsis thaliana. The settings on record: other: PAL assay (L-Phe), pH 8.5, 30° C.
In data set [4] the test system is N[C@@H](Cc1ccc(O)cc1)C(=O)O. Type of data set: biochemical, Brachypodium distachyon. The following applies: other: TAL assay (L-Tyr), pH 8.5, 30° C. As for the experimental part: (§1) All substrate solutions were prepared with 0.01 N NaOH to increase the solubility of L-Tyr. A mixture containing 100 mM Tris-HCl (pH 8.5), 1% glycerol, and purified enzyme in a total volume of 50 μl was preincubated for 3 min at 30° C. PAL and TAL reactions were started by addition of 50 μl of 1 mM substrate (L-Phe or L-Tyr, respectively) and were incubated at 30° C. for 20 min unless otherwise noted. The reactions were terminated by addition of 6N acetic acid (10 μl).
(§2) The kinetic parameters of the recombinant enzymes were determined using HPLC. Reaction mixtures containing 100 mM Tris-HCl (pH 8.5), 1% glycerol, and purified enzyme (0.15 μg for PAL assay and 1 μg for TAL assay) in a 50 μl total volume were preincubated for 3 min at 30° C. PAL and TAL reactions were started by addition of 50 μl substrate solution prepared with 0-4 mM L-Phe and 0-2 mM L-Tyr. After 10 min and 20 min incubations for PAL and TAL assay, respectively, at 30° C., the reaction was terminated by addition of 6N acetic acid (10 μl). […] The products were quantified using calibration curves generated using authentic standards. Non-linear hyperbolic regression analyses were conducted using the Excel Solver tool to calculate Km and Vmax values.

For data set [5], the system named is N[C@@H](Cc1ccccc1)C(=O)O. Type of data set: biochemical, Brachypodium distachyon. The settings on record: other: PAL assay (L-Phe), pH 8.5, 30° C. On the procedure:
as §1, §2

Data set [6] relates to N[C@@H](Cc1ccccc1)C(=O)O. Type of data set: biochemical, Brachypodium distachyon. The following applies: other: PAL assay (L-Phe), pH 8.5, 30° C. This is another data set of the same source.
The subject of data set [7] is N[C@@H](Cc1ccc(O)cc1)C(=O)O. It is filed as biochemical, Sorghum bicolor. The following applies: other: TAL assay (L-Tyr), pH 8.5, 30° C. As for the experimental part:
as §1, §2

In data set [8] the test system is N[C@@H](Cc1ccccc1)C(=O)O. It is filed as biochemical, Sorghum bicolor. The settings on record: other: PAL assay (L-Phe), pH 8.5, 30° C. As for the experimental part: as §1, §2
The source holds these as a separate data set.

Chain of Brachypodium distachyon BdPTAL variant H123F (BdPTAL^H123F) (Brachypodium distachyon; H123F) (chain, as listed by the source H123F H123F H123F): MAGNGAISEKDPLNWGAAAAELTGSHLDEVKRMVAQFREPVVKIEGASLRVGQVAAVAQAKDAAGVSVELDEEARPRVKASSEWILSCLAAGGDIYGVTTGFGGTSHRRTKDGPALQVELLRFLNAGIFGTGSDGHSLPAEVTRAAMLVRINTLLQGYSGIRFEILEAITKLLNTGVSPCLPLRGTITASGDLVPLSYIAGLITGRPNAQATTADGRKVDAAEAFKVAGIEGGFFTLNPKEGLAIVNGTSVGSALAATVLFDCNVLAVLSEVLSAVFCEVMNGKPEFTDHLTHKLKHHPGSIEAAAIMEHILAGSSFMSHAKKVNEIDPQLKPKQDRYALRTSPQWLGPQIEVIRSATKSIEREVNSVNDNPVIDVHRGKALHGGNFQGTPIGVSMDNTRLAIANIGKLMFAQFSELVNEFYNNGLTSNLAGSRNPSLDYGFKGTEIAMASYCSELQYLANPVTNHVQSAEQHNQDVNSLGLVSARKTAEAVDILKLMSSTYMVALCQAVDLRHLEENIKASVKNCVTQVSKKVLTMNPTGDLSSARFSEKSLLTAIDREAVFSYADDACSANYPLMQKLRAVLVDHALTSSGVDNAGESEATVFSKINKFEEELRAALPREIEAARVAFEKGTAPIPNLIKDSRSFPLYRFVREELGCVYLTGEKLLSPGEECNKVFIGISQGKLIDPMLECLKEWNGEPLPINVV
Chain of Arabidopsis thaliana AtPAL1, wild type, SEQ ID NO: 144 (Arabidopsis thaliana) (chain, as listed by the source): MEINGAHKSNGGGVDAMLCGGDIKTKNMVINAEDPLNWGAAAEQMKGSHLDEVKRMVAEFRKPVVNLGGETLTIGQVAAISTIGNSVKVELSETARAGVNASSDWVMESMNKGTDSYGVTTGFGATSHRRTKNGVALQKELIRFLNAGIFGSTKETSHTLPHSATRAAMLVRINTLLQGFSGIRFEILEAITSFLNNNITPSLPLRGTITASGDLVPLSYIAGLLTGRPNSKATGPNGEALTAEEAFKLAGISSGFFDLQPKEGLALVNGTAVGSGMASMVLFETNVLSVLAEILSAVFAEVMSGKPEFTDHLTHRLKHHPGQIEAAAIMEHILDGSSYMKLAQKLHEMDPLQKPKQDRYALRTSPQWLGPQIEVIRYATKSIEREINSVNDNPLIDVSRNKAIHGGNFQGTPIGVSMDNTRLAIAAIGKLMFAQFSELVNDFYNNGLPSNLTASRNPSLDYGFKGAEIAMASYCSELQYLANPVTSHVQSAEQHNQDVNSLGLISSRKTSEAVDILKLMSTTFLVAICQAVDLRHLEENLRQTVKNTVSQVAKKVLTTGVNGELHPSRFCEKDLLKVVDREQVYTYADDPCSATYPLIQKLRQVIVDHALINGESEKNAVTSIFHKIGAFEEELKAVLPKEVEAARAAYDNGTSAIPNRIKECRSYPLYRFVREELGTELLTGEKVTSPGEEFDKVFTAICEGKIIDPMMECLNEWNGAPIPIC
Chain of Sorghum bicolor SbPTAL, wild type (Sorghum bicolor) (chain, as listed by the source): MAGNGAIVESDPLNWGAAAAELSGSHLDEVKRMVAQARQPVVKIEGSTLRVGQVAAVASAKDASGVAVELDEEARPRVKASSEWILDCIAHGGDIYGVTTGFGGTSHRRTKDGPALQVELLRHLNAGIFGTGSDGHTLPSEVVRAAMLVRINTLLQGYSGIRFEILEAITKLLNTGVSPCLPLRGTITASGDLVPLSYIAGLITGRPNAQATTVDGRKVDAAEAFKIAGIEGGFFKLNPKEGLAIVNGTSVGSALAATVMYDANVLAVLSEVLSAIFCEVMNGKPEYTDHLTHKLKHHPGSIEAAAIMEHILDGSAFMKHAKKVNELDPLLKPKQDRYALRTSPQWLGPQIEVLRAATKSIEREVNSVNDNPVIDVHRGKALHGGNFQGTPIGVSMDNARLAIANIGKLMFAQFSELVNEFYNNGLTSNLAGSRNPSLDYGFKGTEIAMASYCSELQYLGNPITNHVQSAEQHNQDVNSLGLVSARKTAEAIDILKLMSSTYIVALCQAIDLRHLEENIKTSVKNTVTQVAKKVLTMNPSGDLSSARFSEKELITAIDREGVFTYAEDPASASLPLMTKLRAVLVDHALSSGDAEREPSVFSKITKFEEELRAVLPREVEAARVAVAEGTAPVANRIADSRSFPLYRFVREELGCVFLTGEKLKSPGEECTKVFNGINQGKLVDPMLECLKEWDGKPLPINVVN
Chain of Arabidopsis thaliana AtPAL1 variant F144H/S114I (as printed in Table 3; AtPAL1^F144H_S116I, SEQ ID NO: 146, elsewhere) (Arabidopsis thaliana; F144H/S116I) (chain, as listed by the source F144H S114I F144H S116I F144H S116I): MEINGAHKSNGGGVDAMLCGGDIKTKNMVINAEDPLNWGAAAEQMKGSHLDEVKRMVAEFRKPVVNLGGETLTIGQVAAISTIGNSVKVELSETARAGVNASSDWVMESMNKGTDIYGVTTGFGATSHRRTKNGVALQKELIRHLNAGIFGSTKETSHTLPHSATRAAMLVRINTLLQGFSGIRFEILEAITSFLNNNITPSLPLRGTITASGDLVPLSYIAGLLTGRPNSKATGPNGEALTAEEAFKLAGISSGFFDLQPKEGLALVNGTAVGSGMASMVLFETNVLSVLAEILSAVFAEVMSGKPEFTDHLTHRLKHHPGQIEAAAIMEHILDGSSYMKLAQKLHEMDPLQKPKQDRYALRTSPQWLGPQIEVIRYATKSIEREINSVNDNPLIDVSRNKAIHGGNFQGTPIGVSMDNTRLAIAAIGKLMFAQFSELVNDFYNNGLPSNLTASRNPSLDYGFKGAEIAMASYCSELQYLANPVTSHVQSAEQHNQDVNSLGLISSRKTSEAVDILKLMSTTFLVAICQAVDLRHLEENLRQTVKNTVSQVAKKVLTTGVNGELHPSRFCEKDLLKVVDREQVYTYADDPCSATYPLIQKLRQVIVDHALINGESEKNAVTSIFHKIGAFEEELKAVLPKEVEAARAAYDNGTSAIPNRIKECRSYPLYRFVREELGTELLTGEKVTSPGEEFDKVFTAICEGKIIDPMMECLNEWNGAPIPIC
Chain of Arabidopsis thaliana AtPAL1 variant S114I (as printed in Table 3; AtPAL1^S116I, SEQ ID NO: 260, elsewhere) (Arabidopsis thaliana; S116I) (chain, as listed by the source S114I S116I S116I): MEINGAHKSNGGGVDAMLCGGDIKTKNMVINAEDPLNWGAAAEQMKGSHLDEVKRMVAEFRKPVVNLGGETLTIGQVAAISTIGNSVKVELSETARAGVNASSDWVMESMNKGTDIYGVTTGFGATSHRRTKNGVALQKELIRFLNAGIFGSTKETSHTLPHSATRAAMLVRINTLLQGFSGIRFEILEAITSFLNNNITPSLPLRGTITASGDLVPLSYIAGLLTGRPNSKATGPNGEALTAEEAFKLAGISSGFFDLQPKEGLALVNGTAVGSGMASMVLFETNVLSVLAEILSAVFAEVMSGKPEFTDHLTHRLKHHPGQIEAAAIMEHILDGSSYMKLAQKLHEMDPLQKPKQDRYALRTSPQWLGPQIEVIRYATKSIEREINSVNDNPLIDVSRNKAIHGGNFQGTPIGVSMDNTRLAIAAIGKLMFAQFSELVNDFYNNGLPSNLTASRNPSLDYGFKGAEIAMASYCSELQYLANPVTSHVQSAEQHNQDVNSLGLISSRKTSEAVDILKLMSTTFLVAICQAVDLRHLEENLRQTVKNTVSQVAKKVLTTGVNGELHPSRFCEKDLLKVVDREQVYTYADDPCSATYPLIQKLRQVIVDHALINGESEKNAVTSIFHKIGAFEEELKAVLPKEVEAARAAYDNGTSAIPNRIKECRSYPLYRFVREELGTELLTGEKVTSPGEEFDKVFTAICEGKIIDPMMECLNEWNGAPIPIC
Chain of Sorghum bicolor SbPTAL variant H123F (SbPTAL^H123F) (Sorghum bicolor; H123F) (chain, as listed by the source H123F H123F H123F): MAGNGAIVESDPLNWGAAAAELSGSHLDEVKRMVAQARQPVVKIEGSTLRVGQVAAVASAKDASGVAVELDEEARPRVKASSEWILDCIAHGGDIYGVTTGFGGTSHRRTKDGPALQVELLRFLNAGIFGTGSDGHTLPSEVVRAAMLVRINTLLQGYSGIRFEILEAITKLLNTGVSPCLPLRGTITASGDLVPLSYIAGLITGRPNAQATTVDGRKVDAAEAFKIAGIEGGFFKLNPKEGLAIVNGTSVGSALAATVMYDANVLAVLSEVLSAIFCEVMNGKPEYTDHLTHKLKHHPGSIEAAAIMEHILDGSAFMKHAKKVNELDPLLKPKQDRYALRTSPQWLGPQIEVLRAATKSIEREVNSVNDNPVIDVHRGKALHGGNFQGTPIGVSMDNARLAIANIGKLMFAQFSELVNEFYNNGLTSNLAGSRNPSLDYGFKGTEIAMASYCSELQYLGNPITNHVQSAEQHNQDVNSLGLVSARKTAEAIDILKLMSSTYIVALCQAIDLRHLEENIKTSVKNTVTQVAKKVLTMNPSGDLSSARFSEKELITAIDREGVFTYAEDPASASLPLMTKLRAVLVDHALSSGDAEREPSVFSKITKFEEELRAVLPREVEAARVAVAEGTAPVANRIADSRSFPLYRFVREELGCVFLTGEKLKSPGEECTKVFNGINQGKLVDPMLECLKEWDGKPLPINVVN
Chain of Brachypodium distachyon BdPTAL, wild type (Brachypodium distachyon) (chain, as listed by the source): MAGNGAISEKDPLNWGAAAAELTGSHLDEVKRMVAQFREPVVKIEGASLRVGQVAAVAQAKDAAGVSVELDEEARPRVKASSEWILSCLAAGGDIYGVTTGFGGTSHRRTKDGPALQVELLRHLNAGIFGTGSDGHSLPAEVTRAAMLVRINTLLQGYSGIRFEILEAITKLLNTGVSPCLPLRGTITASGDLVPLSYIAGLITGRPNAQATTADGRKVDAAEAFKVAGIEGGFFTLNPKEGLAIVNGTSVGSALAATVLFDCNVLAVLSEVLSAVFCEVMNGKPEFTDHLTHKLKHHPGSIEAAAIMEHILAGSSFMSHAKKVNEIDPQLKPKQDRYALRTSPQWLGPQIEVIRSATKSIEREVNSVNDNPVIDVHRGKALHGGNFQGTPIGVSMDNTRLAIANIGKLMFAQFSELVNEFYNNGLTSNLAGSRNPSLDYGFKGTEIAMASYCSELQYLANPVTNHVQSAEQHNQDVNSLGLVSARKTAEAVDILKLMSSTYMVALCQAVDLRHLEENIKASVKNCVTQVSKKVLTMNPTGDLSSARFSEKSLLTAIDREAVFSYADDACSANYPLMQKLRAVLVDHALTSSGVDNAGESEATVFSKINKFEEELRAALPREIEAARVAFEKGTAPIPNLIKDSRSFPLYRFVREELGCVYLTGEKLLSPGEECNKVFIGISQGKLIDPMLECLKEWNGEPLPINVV

By Km is commonly meant the substrate concentration at which the rate is half of its maximum. One may read the kcat as the maximal rate divided by the concentration of active sites. The kcat/Km is the second-order rate constant that governs catalysis at low substrate concentration. Consider “Sorghum bicolor SbPTAL, wild type (Sorghum bicolor)”, for which, in the data set on N[C@@H](Cc1ccccc1)C(=O)O [1], the Km was determined as 150.1 ± 14.4 µM, the kcat was 0.69 ± 0.01 s⁻¹ and the kcat/Km is 4630 ± 490 M⁻¹ s⁻¹.

As for “Arabidopsis thaliana AtPAL1 variant S114I (as printed in Table 3; AtPAL1^S116I, SEQ ID NO: 260, elsewhere) (Arabidopsis thaliana; S116I)”, in data set [2], the Km came out at 515.4 ± 54.3 µM, the kcat came out at 0.02 ± 0.00 s⁻¹ and the catalytic efficiency (kcat/Km) was found to be 40 ± 0 M⁻¹ s⁻¹. In the data set on N[C@@H](Cc1ccccc1)C(=O)O [3], the Km was found to be 10.1 ± 1.9 µM, the kcat came to 0.23 ± 0.00 s⁻¹ and the specificity constant (kcat/Km) was found to be 23710 ± 4630 M⁻¹ s⁻¹.

As to “Arabidopsis thaliana AtPAL1, wild type, SEQ ID NO: 144 (Arabidopsis thaliana)”, in the data set on N[C@@H](Cc1ccccc1)C(=O)O [3], the Michaelis constant (Km) turned out to be 52.2 ± 3.1 µM, the kcat came to 1.42 ± 0.07 s⁻¹ and the kcat/Km came out at 27310 ± 850 M⁻¹ s⁻¹.

With “Arabidopsis thaliana AtPAL1 variant F144H (AtPAL1^F144H), SEQ ID NO: 261 (Arabidopsis thaliana; F144H)”, in the data set with N[C@@H](Cc1ccccc1)C(=O)O [3], the Km turned out to be 1198.9 ± 21.1 µM, the catalytic constant (kcat) worked out at 1.58 ± 0.04 s⁻¹ and the kcat/Km was 1320 ± 20 M⁻¹ s⁻¹.

As to “Brachypodium distachyon BdPTAL variant H123F (BdPTAL^H123F) (Brachypodium distachyon; H123F)”, in data set [4], the Michaelis-Menten constant (Km) came to 765.2 ± 65.8 µM, the kcat is 0.03 ± 0.00 s⁻¹ and the kcat/Km was 40 ± 0 M⁻¹ s⁻¹. In the data set on N[C@@H](Cc1ccccc1)C(=O)O [5], the Michaelis-Menten constant (Km) was determined as 6.0 ± 1.4 µM, the catalytic constant (kcat) was 0.17 ± 0.00 s⁻¹ and the catalytic efficiency (kcat/Km) amounted to 29920 ± 6750 M⁻¹ s⁻¹.

As for “Brachypodium distachyon BdPTAL, wild type (Brachypodium distachyon)”, in the data set on N[C@@H](Cc1ccccc1)C(=O)O [6], the Km stood at 216.6 ± 10.3 µM, the turnover number (kcat) stood at 1.05 ± 0.05 s⁻¹ and the catalytic efficiency (kcat/Km) was 4840 ± 110 M⁻¹ s⁻¹.

Consider “Sorghum bicolor SbPTAL variant H123F (SbPTAL^H123F) (Sorghum bicolor; H123F)”, for which, in data set [7], the Michaelis-Menten constant (Km) is 750.7 ± 36.8 µM, the catalytic constant (kcat) worked out at 0.03 ± 0.00 s⁻¹ and the specificity constant (kcat/Km) stood at 40 ± 0 M⁻¹ s⁻¹. In addition, in the data set on N[C@@H](Cc1ccccc1)C(=O)O [8], the Km stood at 3.8 ± 2.0 µM, the catalytic constant (kcat) came to 0.10 ± 0.00 s⁻¹ and the kcat/Km is 30970 ± 13700 M⁻¹ s⁻¹.

On to “Arabidopsis thaliana AtPAL1 variant F144H/S114I (as printed in Table 3; AtPAL1^F144H_S116I, SEQ ID NO: 146, elsewhere) (Arabidopsis thaliana; F144H/S116I)”, for which, in the data set on N[C@@H](Cc1ccccc1)C(=O)O [3], the Michaelis-Menten constant (Km) was determined as 87.3 ± 2.9 µM, the kcat is 0.88 ± 0.01 s⁻¹ and the kcat/Km was 10070 ± 440 M⁻¹ s⁻¹.
